Biological target: poliovirus receptor (PVR) (UniProt P15151)
Assay: cell-based or functional assay

Chain of poliovirus receptor (PVR) (P15151 21-417 limits assumed): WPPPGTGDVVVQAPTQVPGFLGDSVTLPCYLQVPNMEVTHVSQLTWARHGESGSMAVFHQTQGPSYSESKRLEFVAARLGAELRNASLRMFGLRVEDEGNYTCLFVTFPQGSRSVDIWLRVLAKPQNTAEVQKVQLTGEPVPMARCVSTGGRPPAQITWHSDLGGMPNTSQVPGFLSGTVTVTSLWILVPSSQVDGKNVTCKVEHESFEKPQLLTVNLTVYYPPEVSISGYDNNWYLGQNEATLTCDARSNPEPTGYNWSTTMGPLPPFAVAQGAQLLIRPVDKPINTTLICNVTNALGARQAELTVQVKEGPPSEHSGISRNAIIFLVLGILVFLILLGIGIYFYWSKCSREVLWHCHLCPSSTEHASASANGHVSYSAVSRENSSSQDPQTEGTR

Q: What does the source list for “T cell immunoreceptor with Ig and ITIM domains (TIGIT) (from UniProt Q495A1 22-244)”?
A: frequency of TNFα+ NK cells after A549 spheroid co-culture (isotype control) and restimulation with PVR+ K562 cells: 15%; loss in the IFNγ generation capacity of A549 spheroid-exposed PM21-NK cells: 30%

From patent US20240226168A1
